Test results published in the supplement of paper PMC9732359.
± gives the uncertainty stated by the source.

Test: protein stability index of a GFP-peptide fusion (yeast GPS) (PSI 1-4); higher = more stable; sorted into four equal gates, so the index is relative within each strain
Method in brief: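 Sequencing reads from sorted gates were used to score each peptide. The library consisted of tiled 17-residue yeast protein peptides fused downstream of GFP on a Cherry-expressing plasmid, pooled and carried in yeast. Mid-log cultures in leucine-free medium were split into four equal gates by GFP/Cherry ratio, and each gate's plasmids were PCR-amplified and Illumina-sequenced. The protein stability index adds up, over all gates, the read frequency multiplied by the gate number.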

Sequence	protein stability index (doa10∆)	protein stability index (pdr5∆)	protein stability index (san1∆)	protein stability index (ubr1∆)
CAYTGTGDVLLIQDLLH [RPN1]	3.01 ± 0.059	2.88 ± 0.064	2.75 ± 0.065	2.8 ± 0.052
LPRELPKLLDALNKISK [SNU114]	2.65 ± 0.072	2.74 ± 0.083	2.84 ± 0.077	2.88 ± 0.062
ESLREIPYGPDFDNIEF [SEC65]	3.1 ± 0.072	3.12 ± 0.067	2.92 ± 0.087	3.04 ± 0.057
QDVIKVLYQSNATHDED [SWP82]	2.91 ± 0.043	2.89 ± 0.04	2.69 ± 0.04	2.881 ± 0.028
KSVLGDGKKHSVFYTIL [RPO31]	2.19 ± 0.087	2.42 ± 0.085	3.02 ± 0.08	2.1 ± 0.087
ERDFYHSLREYINGKAT [RPO31]	2.58 ± 0.044	2.43 ± 0.044	2.9 ± 0.037	1.75 ± 0.023
TKRESLNARMFLKYYGA [SIR2]	2.98 ± 0.11	2.9 ± 0.098	3.14 ± 0.11	2.6 ± 0.1
YIKSATLYSVKSKEDMK [SNU114]	3.22 ± 0.17	3.31 ± 0.13	3.18 ± 0.082	3.11 ± 0.087
IRVTNSFALPFEEDEKN [RPN8]	2.67 ± 0.062	2.48 ± 0.046	3.05 ± 0.044	3.15 ± 0.043
QEETVVEQTAEVTIEDA [RPS12]	3.36 ± 0.12	3.38 ± 0.13	3.19 ± 0.048	3.33 ± 0.056
LYDLRASYAKIEIKISD [SNU114]	2.34 ± 0.11	2.72 ± 0.084	2.22 ± 0.12	2.13 ± 0.17
GRLRNKSHKQTIVTGGG [RPP1]	2.57 ± 0.093	2.89 ± 0.081	2.56 ± 0.073	2.92 ± 0.074
KINRPPVSVSRIARALK [RPL18A]	–	2.06 ± 0.1	1.97 ± 0.13	2.66 ± 0.18
EELKNMFLYILKHLEEM [RRI2]	2.25 ± 0.16	1.93 ± 0.11	1.32 ± 0.11	1.73 ± 0.097
KKLESQESLVKLFTTNE [RPN5]	2.94 ± 0.11	3.12 ± 0.13	3.22 ± 0.081	2.88 ± 0.12
VVEDKPLLSKKERLVRD [SMB1]	1.14 ± 0.063	1.2 ± 0.043	1.21 ± 0.13	1.49 ± 0.056
SYANLPGTITHGMFSSA [FAS1]	2.64 ± 0.06	2.15 ± 0.051	2.16 ± 0.055	2.51 ± 0.035
VLNMLYWVPDWDGVIPT [RPO21]	2.92 ± 0.067	2.63 ± 0.066	2.92 ± 0.055	3.16 ± 0.038
FEDSMQFKKLTHAQRTG [PRP8]	2.81 ± 0.086	3.11 ± 0.083	3.07 ± 0.087	2.99 ± 0.085
DTIATSATPNAAAFSQQ [GAL11]	2.6 ± 0.056	2.92 ± 0.064	2.76 ± 0.055	2.82 ± 0.039
SSRTKFWSFLDSLIFKD [YJL039C/NUP192]	2.78 ± 0.18	2.87 ± 0.17	–	2.72 ± 0.12
NYGMIAINPGRVAASFS [FAS1]	1.72 ± 0.1	1.89 ± 0.09	1.46 ± 0.076	1.81 ± 0.06
CCINAAFLALVDAGIAL [RRP46]	2.37 ± 0.078	2.88 ± 0.07	2.06 ± 0.061	2.62 ± 0.051
GIDLAYNMYDAYGNWFN [PRP8]	2.94 ± 0.049	3.08 ± 0.04	3.05 ± 0.058	3 ± 0.045
LGPGIYCDPNTQEIRPV [RRP40]	2.62 ± 0.057	2.78 ± 0.051	2.53 ± 0.057	2.59 ± 0.058
EKAKSAGVQGSKVSKQQ [RPL24B]	3.48 ± 0.14	3.4 ± 0.11	3.31 ± 0.14	–
GKMIELISGKAGVLNGT [RET1]	2.62 ± 0.079	2.98 ± 0.087	2.52 ± 0.24	2.6 ± 0.11

Sequence	protein stability index (doa10∆)	protein stability index (pdr5∆)	protein stability index (san1∆)	protein stability index (ubr1∆)
LHYDKDYNLRIYCYFLI [SSN8]	1.28 ± 0.046	1.37 ± 0.045	1.37 ± 0.078	1.53 ± 0.046
DHLVSSIPMGGQSINDS [ARP9]	2.78 ± 0.11	2.89 ± 0.093	3.08 ± 0.068	3.13 ± 0.1
CCTKFFTMMTSEPLTLK [PCI8]	2.03 ± 0.07	2.15 ± 0.057	1.98 ± 0.12	1.64 ± 0.053
PVSTASYRLLPQINILQ [RPC40]	1.61 ± 0.053	1.66 ± 0.05	1.63 ± 0.07	1.97 ± 0.051
MDRTQTFIKDCLFTKCL [POP4]	1.75 ± 0.05	1.75 ± 0.056	1.7 ± 0.1	1.94 ± 0.044
LEHVLLVPTASFFIASQ [FAS1]	1.25 ± 0.033	1.46 ± 0.038	1.45 ± 0.064	1.31 ± 0.027
IIPSRMGEAQTGANFDD [REC8]	1.93 ± 0.089	2.16 ± 0.12	3.04 ± 0.25	2.74 ± 0.1
VKVSAAAGKANKQFAKF [RPS11A]	2.64 ± 0.081	2.88 ± 0.074	2.85 ± 0.065	2.93 ± 0.044
RKVEKEKNEKEREIKRR [UBP6]	3.32 ± 0.056	3.27 ± 0.054	3.09 ± 0.053	3.17 ± 0.068
SEISDGKLKRCSRCGSV [SIN4]	3.33 ± 0.17	3.4 ± 0.14	3.36 ± 0.11	3.59 ± 0.11
YNTSILEFRWLTSSKSV [SIN4]	1.79 ± 0.065	1.91 ± 0.081	1.96 ± 0.079	2.48 ± 0.1
PRINNISAEDRADTDLA [SNF2]	1.94 ± 0.15	2.51 ± 0.14	3.02 ± 0.084	2.86 ± 0.086
DALLNSTTEHINIDDLL [YJL039C/NUP192]	2.47 ± 0.24	2.73 ± 0.12	2.59 ± 0.092	3.17 ± 0.059
EASNTPIEHQFNPYGDN [PRE7]	3.15 ± 0.08	3.33 ± 0.089	3.54 ± 0.091	3.38 ± 0.086
LANFVAKGFYHTPMVNF [SRB8]	2.57 ± 0.059	2.27 ± 0.044	1.92 ± 0.082	2.32 ± 0.048
VLSDQVGSEKVLQDLRL [YJL039C/NUP192]	3.12 ± 0.2	–	–	–
RKNDNANDHDESIDVDM [SMC3]	2.83 ± 0.24	2.72 ± 0.23	3.32 ± 0.11	3.19 ± 0.094
ESNRQSVIVDSKVTVPP [ESC2]	2.47 ± 0.11	2.87 ± 0.082	2.81 ± 0.079	2.81 ± 0.048
VRYGSSLRRQVKKLEIQ [RPL43A]	–	–	2.55 ± 0.2	–
HPVSLISFAIYSALNST [RRP42]	1.53 ± 0.051	1.55 ± 0.058	1.62 ± 0.089	1.84 ± 0.045
NNTKAGRRKTWKRQNTL [RPL15A]	2.65 ± 0.059	2.95 ± 0.07	2.44 ± 0.083	2.87 ± 0.12
KFFRVKYENKISTVIEV [SMC3]	1.35 ± 0.13	1.2 ± 0.11	1.09 ± 0.28	1.12 ± 0.087
EWNGKSFQKKSNDKVVE [ISW2]	3.14 ± 0.054	3.34 ± 0.058	3.01 ± 0.049	3.08 ± 0.064
KKKTKKELELERKERED [SWI1]	3.62 ± 0.12	3.37 ± 0.073	3.51 ± 0.051	3.31 ± 0.043
CINELDNWNAPLIMATC [RPO31]	3.18 ± 0.16	2.66 ± 0.14	3.3 ± 0.07	3.54 ± 0.12
AIGTKRYDSNSGGEREI [RPT2]	3.28 ± 0.22	3.54 ± 0.11	3.39 ± 0.12	3.5 ± 0.13
